From paper PMC5141385, “Small heat shock proteins sequester misfolding proteins in near-native conformation for cellular protection and efficient refolding” (Nature Communications, 2016)

B1: Hsp26 (natural protein, S. cerevisiae, UniProt P15992 1-214, looked up)
chain: MSFNSPFFDFFDNINNEVDAFNRLLGEGGLRGYAPRRQLANTPAKDSTGKEVARPNNYAGALYDPRDETLDDWFDNDLSLFPSGFGFPRSVAVPVDILDHDNNYELKVVVPGVKSKKDIDIEYHQNKNQILVSGEIPSTLNEESKDKVKVKESSSGKFKRVITLPDYPGVDADNIKADYANGVLTLTVPKLKPQKDGKNHVKKIEVSSQESWGN
notes: Hsp26, small heat shock protein of S. cerevisiae; also called sHsp; small heat shock protein Hsp26; source: E. coli (derivative of MC4100), solubilised from the pellet in 8 M urea, purified (Ni-IDA, Sephacryl S-300); not shown: His6-Smt3, N-terminal, cleaved
B2: His6-MDH (malate dehydrogenase) (enzyme)
chain: AKVAVLGASGGIGQPLSLLLKNSPLVSRLTLYDIAHTPGVAADLSHIETRATVKGYLGPEQLPDCLKGCDVVVIPAGVPRKPGMTRDDLFNTNATIVATLTAACAQHCPDAMICIISNPVNSTIPITAEVFKKHGVYNPNKIFGVTTLDIVRANAFVAELKGLDPARVSVPVIGGHAGKTIIPLISQCTPKVDFPQDQLSTLTGRIQEAGTEVVKAKAGAGSATLSMAYAGARFVFSLVDAMNGKEGVVECSFVKSQETDCPYFSTPLLLGKKGIEKNLGIGKISPFEEKMIAEAIPELKASIKKGEEFVKNMK
notes: malate dehydrogenase (MDH), thermolabile model substrate; The aggregation, centrifugation and SEC methods say only 'MDH'; also called His6-tagged MDH; source: E. coli (derivative of MC4100), purified (Ni-IDA)
B3: MDH labelled with 7-diethylcoumarin-3-carboxylic acid (enzyme, UniProt P00346 25-338, looked up)
chain: B2 chain
modifications: 7-diethylcoumarin-3-carboxylic acid (succinimidyl ester labelling, sites not stated)
notes: malate dehydrogenase (MDH) purchased from Roche; also called labelled MDH; MDH (Roche); source: bought: Roche; labelled with 7-diethylcoumarin-3-carboxylic acid succinimidyl ester

Assays:
Settings in all cases: both partners purified
[1] = biological target: B3; assay: FRET or BRET; MDH–YFP and coumarin-labelled MDH (each 0.25 μM) mixed in preheated buffer C at 47 °C (heat-induced co-aggregation); signal at 527 nm; with or without Hsp26 or Hsp42
[2] = biological target: B2; assay: co-sedimentation; MDH (0.5 μM) denatured 60 min at 41 °C in buffer C with or without sHsps (0.1–2.5 μM); 10–50% glycerol gradient, 40,000 r.p.m., 1 h, 4 °C, and supernatant-pellet centrifugation; fractions by SDS-PAGE and western blot
Hsp42 [3] = biological target: T1, Hsp42 (S. cerevisiae, UniProt Q12329 1-375); assay: cross-linking; DSS cross-linking of Hsp42/MDH complexes; MDH cross-link pattern by western blot
T1 construct: Hsp42, small heat shock protein of S. cerevisiae; Cloned into pMal-c2E; the enterokinase site was changed to a PreScission site, so residues of that site may remain at the N-terminus; also called sHsp; small heat shock protein Hsp42; source: E. coli ArcticExpress, purified (amylose resin, PreScission cleavage, Sephacryl S-300); not shown: MBP, N-terminal, cleaved

Hsp42 [4] = biological target: T1, Hsp42; assay: FRET or BRET; MDH–YFP and coumarin-labelled MDH (each 0.25 μM) mixed in preheated buffer C at 47 °C (heat-induced co-aggregation); signal at 527 nm; with or without Hsp26 or Hsp42

T1 sequence (Q12329 whole entry): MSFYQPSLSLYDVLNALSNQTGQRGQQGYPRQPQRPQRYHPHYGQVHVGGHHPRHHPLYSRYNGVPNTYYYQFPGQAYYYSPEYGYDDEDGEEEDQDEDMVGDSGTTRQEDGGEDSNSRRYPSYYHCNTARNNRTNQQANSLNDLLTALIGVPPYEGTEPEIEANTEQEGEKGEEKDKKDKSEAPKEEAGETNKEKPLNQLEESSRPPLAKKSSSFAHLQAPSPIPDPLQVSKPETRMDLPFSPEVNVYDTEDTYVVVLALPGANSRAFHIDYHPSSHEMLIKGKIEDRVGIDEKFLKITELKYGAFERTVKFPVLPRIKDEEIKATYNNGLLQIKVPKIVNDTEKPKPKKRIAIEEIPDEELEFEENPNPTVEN

Binder: B1
- binding result [1]: binds
- binding result [2]: binds

Binder: B2
- binding result (Hsp42 [3]): binds

Binder: B3
- binding result (Hsp42 [4]): binds
